Drawing on the Immune Epitope Database (IEDB), this text covers Kd for 48 sequences.

By Kd is commonly meant a measure of binding affinity in units of concentration.

Assay in all cases: IEDB peptide-MHC binding, purified MHC/competitive/radioactivity; filed as Kd, often an IC50 or EC50 that approximates it; ≥ and ≤ were set here for values at or beyond the usual limits of such assays
Assay [1] has as its target HLA-A*33:01.
The target of assay [2] is HLA-A*68:01.
The target of assay [3] is HLA-A*03:01.
For assay [4], the target named is HLA-A*11:01.
Assay [5] concerns the target HLA-A*31:01.
[6] abbreviates: source organism: Dengue virus 4 Philippines/H241/1956.
Setting [7] is: source organism: Vaccinia virus WR.
[8] abbreviates: source organism: Dengue virus 2 Jamaica/1409/1983.
[9] abbreviates: source organism: Dengue virus 1 Brazil/97-11/1997.
[10] abbreviates: source organism: Mammarenavirus guanaritoense.
[11] abbreviates: source organism: Dengue virus 3 Martinique/1243/1999.
Where [12] appears, read: source organism: Dengue virus 4 Dominica/814669/1981.

A value given as a limit tells only on which side of the number the result lay.

Turning to FTTRLLSSTR, the Kd in assay [1] (setting [6]) was 85.4 nM; in assay [2] (setting [6]), 25.5 nM.

Turning to GLTPEQKAY, the Kd in assay [3] (setting [7]) is at least 78000 nM; in assay [4] (setting [7]), at least 56300 nM; in assay [5] (setting [7]), at least 77900 nM; in assay [1] (setting [7]), at least 77700 nM; in assay [2] (setting [7]), 15000 nM.

As to TSVDIETAIR, the Kd in assay [3] (setting [7]) was found to be 2980 nM; in assay [4] (setting [7]) it was 581 nM; in assay [5] (setting [7]) it was 922 nM; in assay [1] (setting [7]), 1440 nM; in assay [2] (setting [7]), 1.35 nM.

Turning to MLTNAISSR, the Kd in assay [3] (setting [7]) was determined as 13.1 nM; in assay [4] (setting [7]), 4110 nM; in assay [5] (setting [7]), 9.57 nM; in assay [1] (setting [7]), 237 nM; in assay [2] (setting [7]), 13.4 nM.

As for IVHSYLKNY, the dissociation constant Kd in assay [3] (setting [7]) was at least 21600 nM; in assay [4] (setting [7]), 1230 nM; in assay [5] (setting [7]), at least 25500 nM; in assay [1] (setting [7]), at least 77700 nM; in assay [2] (setting [7]), at least 23800 nM.

For VSMTYLYNK, the Kd was 72.5 nM in assay [3] (setting [7]); 1.36 nM in assay [4] (setting [7]); 2.76 nM in assay [5] (setting [7]); 806 nM in assay [1] (setting [7]); 82.7 nM in assay [2] (setting [7]).

ASKKDKLTVY: the Kd in assay [3] (setting [7]) was 6590 nM; in assay [4] (setting [7]) it was 1220 nM; in assay [5] (setting [7]) it was 5290 nM; in assay [1] (setting [7]) it was at least 70000 nM; in assay [2] (setting [7]), at least 70200 nM.

With FMALVAFLR, the Kd worked out at 16.9 nM in assay [5] (setting [8]), 10.7 nM in assay [1] (setting [8]) and 50.6 nM in assay [2] (setting [8]).

On to IAEFVKENER, for which the Kd was at least 70100 nM in assay [3] (setting [7]); at least 30700 nM in assay [4] (setting [7]); 1690 nM in assay [5] (setting [7]); 5580 nM in assay [1] (setting [7]); 169 nM in assay [2] (setting [7]).

Regarding LVYFSTQQNK, the Kd was 0.977 nM in assay [3] (setting [7]); 1.56 nM in assay [4] (setting [7]); 5230 nM in assay [5] (setting [7]); at least 44600 nM in assay [1] (setting [7]); 4.03 nM in assay [2] (setting [7]).

As to TIRHMWSVVY, the Kd in assay [3] (setting [7]) was 294 nM; in assay [4] (setting [7]), 3080 nM; in assay [5] (setting [7]), at least 57000 nM; in assay [1] (setting [7]), at least 70000 nM; in assay [2] (setting [7]), 2860 nM.

ISSIIRSLPK: the Kd in assay [4] (source organism: Mammarenavirus whitewaterense) was determined as 23 nM.

For TTLSLDYAWK, the equilibrium dissociation constant (Kd) amounted to 79.8 nM in assay [4] (setting [9]) and 13.9 nM in assay [2] (setting [9]).

With DWTDGSRGYR, the results for the Kd in assay [5] (setting [10]) and in assay [1] (setting [10]) were 918 nM and 1170 nM, respectively.

Regarding LINRFTMRHK, in assay [3] (source organism: Dengue virus 2 Peru/IQT2913/1996), the Kd is 14.1 nM.

Regarding MLNILNRRRR, the Kd in assay [5] (setting [8]) was 14.1 nM.

Regarding YMPSMKRFR, the figures for the Kd in assay [5] (setting [8]) and in assay [1] (setting [8]) were 100 nM and 7.57 nM, respectively.

On to ALLALNDMGK, for which the Kd in assay [3] (setting [11]) turned out to be 28.4 nM; in assay [4] (setting [11]), 196 nM.

Turning to VSLLGSALLK, the Kd in assay [3] (setting [6]) was 24.9 nM; in assay [4] (setting [6]) it was 45.3 nM.

For CTGKFKIVK, the Kd in assay [4] (setting [8]) is 98.3 nM.

As for MVLAFITFLR, the Kd in assay [4] (setting [6]) is 971 nM; in assay [5] (setting [6]) it was 4.34 nM; in assay [1] (setting [6]), 22.3 nM; in assay [2] (setting [6]), 17.4 nM.

For the sequence MWSLMYFHR, the Kd is 28.9 nM in assay [5] (setting [11]) and 1.36 nM in assay [1] (setting [11]).

On to MLSIINKRK, for which the Kd in assay [3] (setting [11]) amounted to 121 nM.

SQLAKRFSR: the equilibrium dissociation constant (Kd) in assay [5] (source organism: Dengue virus 3 Singapore/8120/1995) came out at 2.07 nM.

In the case of DLPVWLAYR, in assay [1] (setting [8]), the Kd was 4 nM.

On to LTWLGLNSR, for which the Kd is at least 63300 nM in assay [5] (setting [9]) and 43.8 nM in assay [1] (setting [9]).

With SMLNIMNRRK, in assay [3] (setting [9]), the Kd is 49.6 nM.

Take EMGANFKADR: in assay [1] (setting [11]), the Kd was 1540 nM.

EASIQPITR: in assay [2] (source organism: Homo sapiens), the Kd was 50 nM.

For the sequence EAKQPATLR, the figures for the Kd in assay [1] (setting [8]) and in assay [2] (setting [8]) were 10.1 nM and 74.8 nM, respectively.

In the case of TTVITPMLR, the Kd in assay [1] (setting [11]) amounted to 36.7 nM; in assay [2] (setting [11]), 11.8 nM.

As to FNMLKRARNR, in assay [1] (setting [9]), the Kd stood at 421 nM.

With VFLRKLTSR, the Kd in assay [5] (setting [12]) was 66.8 nM; in assay [1] (setting [12]), 178 nM.

In the case of LLSGQGPMK, the Kd in assay [3] (setting [9]) was found to be 40.2 nM.

SYSMCTGKFK: the Kd in assay [1] (setting [8]) turned out to be 841 nM.

On to ASLPTYLSSR, for which the Kd in assay [5] (setting [6]) was 7.6 nM.

Turning to STYGWNLVR, the Kd came out at 63.5 nM in assay [3] (setting [8]), 3.26 nM in assay [5] (setting [8]), 2.91 nM in assay [1] (setting [8]) and 8.81 nM in assay [2] (setting [8]).

Take YVSAIAQTEK: the Kd stood at 311 nM in assay [4] (setting [8]) and 24 nM in assay [2] (setting [8]).

Consider KMVEPWLSSK, for which the Kd in assay [3] (setting [6]) turned out to be 11.5 nM.

Take TSGSPIIDK: the Kd in assay [4] (source organism: Dengue virus 2 16681-PDK53) was determined as 69.4 nM.

For DYMTSMKRFK, the Kd in assay [1] (setting [9]) is 21.2 nM.

For the sequence NTSVDLYAR, in assay [4] (setting [10]), the Kd was 2190 nM.

For the sequence KAINVLRGFR, the Kd in assay [5] (setting [8]) was determined as 0.824 nM.

For MWSLMYFHRR, the Kd is 11.5 nM in assay [5] (setting [11]) and 31.2 nM in assay [1] (setting [11]).

IMQAGKRSLR: the Kd in assay [5] (setting [8]) stood at 5.8 nM; in assay [1] (setting [8]), 219 nM.

Consider DIQQWEPSR, for which, in assay [1] (setting [8]), the Kd came out at 113 nM.

As to GVCGIRSATR, the figures for the Kd in assay [5] (setting [9]) and in assay [2] (setting [9]) were at least 70000 nM and 1880 nM, respectively.

For the sequence VVVGAGGVGK, the results for the Kd in assay [3] (source organism: Homo sapiens) and in assay [4] (source organism: Homo sapiens) were 82 nM and 12.4 nM, respectively.
